For two molecules, Kd results are on record in PMC2965138, “DEB025 (Alisporivir) Inhibits Hepatitis C Virus Replication by Preventing a Cyclophilin A Induced Cis-Trans Isomerisation in Domain II of NS5A” (PLoS ONE, 2010).

In the assay the target is T1, Recombinant 15N-labelled CypA (UniProt P62937 1-165, 15N-labelled).
T1 construct: Cyclophilin A (CypA), peptidyl-prolyl cis-trans isomerase; also called 15N-CypA; source: recombinant, produced and purified as described previously [18]
The experiment in a line: NMR titration; 15N-labelled CypA (100 µM) mixed with increasing concentrations of unlabelled peptide (0 to 2.5 mM); 1H,15N HSQC at each step; KD fitted from combined chemical shift perturbations. Particulars: both partners purified.

B1: Pep-WT (residues 308-327 of NS5A from HCV GT1b Con1) (peptide)
peptide: KFPRAMPIWARPDYNPPLLE
notes: NS5A domain II of hepatitis C virus genotype 1b (Con1), residues 308-327; numbers count on: NS5A itself; also called WT peptide; Pep-WT peptide; source: synthetic peptide, bought: Neosystems (Strasbourg, France), purity greater than 95%
B1: the dissociation constant (Kd) is 802 µM.

B2: Pep-D320E (residues 308-327 of NS5A from HCV GT1b Con1 with D320E) (peptide)
peptide: KFPRAMPIWARPEYNPPLLE
notes: numbers count on: NS5A itself; also called D320E peptide; Pep-D320E peptide; source: synthetic peptide, bought: Neosystems (Strasbourg, France), purity greater than 95%
B2: the Kd turned out to be 1230 µM.
